Test results from paper PMC5124697, “Expression Profiles and DNA-Binding Affinity of Five ERF Genes in Bunches of Vitis vinifera cv. Cardinal Treated with High Levels of CO2 at Low Temperature”.

Columns and labels:
Assay in all cases: EMSA; EMSA: 2 ug protein in 20 ul, 80 nM biotin probe, 50 ng/ul poly(dI-dC), 2.5% glycerol, 1x binding buffer (composition and pH not given), room temperature 20 min; 6% native PAGE, 0.5x TBE; competition 500x unlabeled probe (50 uM unlabeled DNA listed)
Details in all cases: protein: recombinant; tags: N-terminal His (pTrcHisA); label: 3' biotin
VviERF11-c = VviERF11-c (Vitis vinifera cv. Cardinal, UniProt A0A1L6BXF0 1-220)
VviERF11-c, sequence (A0A1L6BXF0 entry or part of it): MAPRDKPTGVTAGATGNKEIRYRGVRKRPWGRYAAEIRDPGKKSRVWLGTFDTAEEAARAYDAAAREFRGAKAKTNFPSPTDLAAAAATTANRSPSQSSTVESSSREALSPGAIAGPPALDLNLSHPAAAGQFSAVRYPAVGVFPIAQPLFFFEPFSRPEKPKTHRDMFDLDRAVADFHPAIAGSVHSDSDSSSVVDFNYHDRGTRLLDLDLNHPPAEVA

VviERF2-c = VviERF2-c (Vitis vinifera cv. Cardinal, UniProt A0A1L6BXE6 1-282)
VviERF2-c, sequence (A0A1L6BXE6 entry or part of it): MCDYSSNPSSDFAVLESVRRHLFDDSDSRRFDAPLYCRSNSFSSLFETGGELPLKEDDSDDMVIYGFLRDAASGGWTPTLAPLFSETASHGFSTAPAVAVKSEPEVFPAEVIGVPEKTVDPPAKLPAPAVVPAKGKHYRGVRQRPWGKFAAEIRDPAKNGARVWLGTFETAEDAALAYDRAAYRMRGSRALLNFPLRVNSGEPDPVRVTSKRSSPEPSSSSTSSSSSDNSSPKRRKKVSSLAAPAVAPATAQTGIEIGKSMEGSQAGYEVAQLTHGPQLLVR

VviERF6L7-c = VviERF6L7-c (Vitis vinifera cv. Cardinal, UniProt A0A1L6BXF1 1-277)
VviERF6L7-c, sequence (A0A1L6BXF1 entry or part of it): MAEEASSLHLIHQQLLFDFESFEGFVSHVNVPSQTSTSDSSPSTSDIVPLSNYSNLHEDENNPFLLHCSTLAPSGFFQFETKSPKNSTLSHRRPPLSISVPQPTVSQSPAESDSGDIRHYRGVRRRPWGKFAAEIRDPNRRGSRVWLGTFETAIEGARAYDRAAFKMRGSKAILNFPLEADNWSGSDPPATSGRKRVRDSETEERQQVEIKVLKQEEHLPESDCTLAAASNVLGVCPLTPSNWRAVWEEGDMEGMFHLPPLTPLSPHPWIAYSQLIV

VviERF10-c = VviERF10-c (Vitis vinifera cv. Cardinal, UniProt F6HIF5 1-204)
VviERF10-c, sequence (F6HIF5 entry or part of it): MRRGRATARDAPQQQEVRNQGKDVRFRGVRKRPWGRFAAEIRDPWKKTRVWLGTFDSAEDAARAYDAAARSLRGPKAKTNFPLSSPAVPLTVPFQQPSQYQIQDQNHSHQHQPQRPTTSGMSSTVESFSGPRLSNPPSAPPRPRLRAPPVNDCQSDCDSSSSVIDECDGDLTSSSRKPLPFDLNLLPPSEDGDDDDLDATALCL

VviERF069-c = VviERF069-c (Vitis vinifera cv. Cardinal, UniProt A0A1L6BXE7 1-285)
VviERF069-c, sequence (A0A1L6BXE7 entry or part of it): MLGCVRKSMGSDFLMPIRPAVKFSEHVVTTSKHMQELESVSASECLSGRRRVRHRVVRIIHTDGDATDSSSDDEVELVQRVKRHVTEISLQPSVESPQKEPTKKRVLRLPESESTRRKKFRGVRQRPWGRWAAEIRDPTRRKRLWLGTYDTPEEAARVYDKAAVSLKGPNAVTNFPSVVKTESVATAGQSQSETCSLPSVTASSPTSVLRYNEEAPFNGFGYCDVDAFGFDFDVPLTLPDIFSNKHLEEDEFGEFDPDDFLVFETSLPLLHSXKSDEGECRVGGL

Binder | binding result (VviERF11-c) | binding result (VviERF2-c) | binding result (VviERF6L7-c) | binding result (VviERF10-c) | binding result (VviERF069-c)
Vcchit1b GCC box (dsDNA) DNA 1: AAAAGCCGCCCACG DNA 2: CGTGGGCGGCTTTT | binds | binds | – | – | –
Vcgns1 GCC box (dsDNA) DNA 1: TGGAGCCGCCGGGA DNA 2: TCCCGGCGGCTCCA | – | – | no binding | – | –
Le-osmo GCC box (dsDNA) DNA 1: AAAAGCCGCCACAC DNA 2: GTGTGGCGGCTTTT | no binding | no binding | no binding | no binding | no binding
Nt-chit GCC box (dsDNA) DNA 1: AAGAGCCGCCACTA DNA 2: TAGTGGCGGCTCTT | no binding | no binding | no binding | no binding | no binding
